Laboratory results reported in the supplement of paper PMC7125110.
± gives the standard error. For part of these data: This sample holds only a part of the variants without activity.

B1: glmS ribozyme (parent)
chain: AUAAAAGCGCCAGAACUACAGAAAUGUAGUUGACGAGGAGGAGGUUUAUCGAAUUUUCGGCGGAUGCCUCCAAA

How the values were obtained:
Details in all cases: with glucosamine-6-phosphate
glucosamine-6-phosphate [1] = variants of: B1; assay: kcat; higher = faster cleavage; RNA array
Outline: (§1)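 Using a hybridised Cy3 probe at 37 °C, barcoded ribozyme variants transcribed in situ by E. coli RNA polymerase on sequenced MiSeq chips were monitored across tiles imaged over ~14 h. The flow contained glucosamine-6-phosphate from 40 μM to 10 mM in HEPES/KCl/Mg(OAc)2 buffer. Signals were normalised to baseline and to non-cleaving reference variants before per-tile medians were fit to one- or two-exponential decays to yield kobs. Weighted Michaelis–Menten fits across concentrations gave kcat and KM.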

glucosamine-6-phosphate [2] = variants of: B1; assay: self-cleavage kobs at 40 uM GlcN6P; higher = faster cleavage; RNA array
Outline: as §1

glucosamine-6-phosphate [3] = variants of: B1; assay: self-cleavage kobs at 640 uM GlcN6P; higher = faster cleavage; RNA array
Outline: as §1

glucosamine-6-phosphate [4] = variants of: B1; assay: self-cleavage kobs at 160 uM GlcN6P; higher = faster cleavage; RNA array
Outline: as §1

glucosamine-6-phosphate [5] = variants of: B1; assay: self-cleavage kobs at 2500 uM GlcN6P; higher = faster cleavage; RNA array
Outline: as §1

glucosamine-6-phosphate [6] = variants of: B1; assay: self-cleavage kobs at 10000 uM GlcN6P; higher = faster cleavage; RNA array
Outline: as §1

glucosamine-6-phosphate [7] = variants of: B1; assay: KM; higher = weaker cofactor use; RNA array
Outline: as §1

Variant	kcat (glucosamine-6-phosphate [1])	self-cleavage kobs at 40 uM GlcN6P (glucosamine-6-phosphate [2])	self-cleavage kobs at 640 uM GlcN6P (glucosamine-6-phosphate [3])	self-cleavage kobs at 160 uM GlcN6P (glucosamine-6-phosphate [4])	self-cleavage kobs at 2500 uM GlcN6P (glucosamine-6-phosphate [5])	self-cleavage kobs at 10000 uM GlcN6P (glucosamine-6-phosphate [6])	KM (glucosamine-6-phosphate [7])
AUAAAAGCGCCAGAACUACAGAAAUGUAGUUGACGAGGAGGAGGUUUAUCGAAUUCUCGGCGGUUGCCUCCAAA [U56C A64U]	< 1e-05 s⁻¹	< 1e-05 s⁻¹	< 1e-05 s⁻¹	–	–	–	–
AUAAAAGCGCCAGAACUACAGAAAUGUAGUUGACGAGGAGGAGGUUUAUCGAAUUGUCGGCGGAUGCCUCGAAA [U56G C71G]	0.000632 ± 0.00018 s⁻¹	6.71e-05 ± 1.8e-05 s⁻¹	0.000271 ± 4.6e-05 s⁻¹	0.00014 ± 2.1e-05 s⁻¹	0.000512 ± 0.0001 s⁻¹	0.000942 ± 0.00021 s⁻¹	–
AUAAAAGCGCCAGAACUACAGAAAUGUAGUUGACGAGGAGGAGGUUUAUCGAAUUGUCGGCGGAUGCCUCCAAA [U56G]	0.04 ± 0.003 s⁻¹	0.000527 ± 1.8e-05 s⁻¹	0.00628 ± 0.00028 s⁻¹	0.00186 ± 0.00015 s⁻¹	0.0168 ± 0.00087 s⁻¹	0.0313 ± 0.0012 s⁻¹	3170 ± 310 µM
AUAAAAGCGCCAGAACUACAGAAAUGUAGUUGACGAGGAGGAGGUUUAUCGAAUUCUCGGCGGAUGCCUCCAAA [U56C]	0.00571 ± 0.00066 s⁻¹	7.94e-05 ± 1.5e-06 s⁻¹	0.000963 ± 2.5e-05 s⁻¹	0.000244 ± 8.9e-06 s⁻¹	0.00743 ± 0.0032 s⁻¹	0.00442 ± 0.00011 s⁻¹	3050 ± 430 µM
AUAAAAGCGCCAGAACUACAGAAAUGUAGUUGACGAGGAGGAGGUUUAUCGAAUUAUCGGCGGACGCCUCCAAA [U56A U65C]	0.00025 ± 5.7e-05 s⁻¹	–	0.000242 ± 6.3e-05 s⁻¹	–	0.000177 ± 4.4e-05 s⁻¹	0.000248 ± 4.7e-05 s⁻¹	–
AUAAAAGCGCCAGAACUACAGAAAUGUAGUUGACGAGGAGGAGGUUUAUCGAAUUGUCGGCGGAUGCCUGCAAA [U56G C70G]	9.25e-05 ± 3.2e-06 s⁻¹	4.14e-05 ± 9.7e-06 s⁻¹	8.21e-05 ± 8.7e-06 s⁻¹	6.12e-05 ± 1e-05 s⁻¹	9.14e-05 ± 1.1e-05 s⁻¹	9.54e-05 ± 9.8e-06 s⁻¹	61.4 ± 13 µM
AUAAAAGCGCCAGAACUACAGAAAUGUAGUUGACGAGGAGGAGGUUUAUCGAAUUGUCGGCGGAUGCCUACAAA [U56G C70A]	4.56e-05 ± 9.3e-06 s⁻¹	–	7.43e-05 ± 3e-05 s⁻¹	3.41e-05 ± 1.7e-05 s⁻¹	6.95e-05 ± 1.6e-05 s⁻¹	3.66e-05 ± 8.6e-06 s⁻¹	–
AUAAAAGCGCCAGAACUACAGAAAUGUAGUUGACGAGGAGGAGGUUUAUCGAAUUGUCCGCGGAUGCCUCCAAA [U56G G59C]	< 1e-05 s⁻¹	< 1e-05 s⁻¹	< 1e-05 s⁻¹	< 1e-05 s⁻¹	–	–	–
AUAAAAGCGCCAGAACUACAGAAAUGUAGUUGACGAGGAGGAGGUUUAUCGAAUUGUCAGCGGAUGCCUCCAAA [U56G G59A]	5.14e-05 ± 3e-06 s⁻¹	–	–	–	3e-05 ± 8.2e-06 s⁻¹	4.3e-05 ± 6.1e-06 s⁻¹	1920 ± 460 µM
AUAAAAGCGCCAGAACUACAGAAAUGUAGUUGACGAGGAGGAGGUUUAUCGAAUUGUCGGCGGAUGGCUCCAAA [U56G C67G]	0.000876 ± 9.7e-05 s⁻¹	3.84e-05 ± 5.8e-06 s⁻¹	0.00028 ± 2.1e-05 s⁻¹	9.74e-05 ± 8.1e-06 s⁻¹	0.000582 ± 5.1e-05 s⁻¹	0.00081 ± 7.6e-05 s⁻¹	1260 ± 220 µM
AUAAAAGCGCCAGAACUACAGAAAUGUAGUUGACGAGGAGGAGGUUUAUCGAAUUCUCGGCGGAUACCUCCAAA [U56C G66A]	0.00312 ± 0.0012 s⁻¹	6.93e-05 ± 1.3e-05 s⁻¹	0.000501 ± 8.4e-05 s⁻¹	8.16e-05 ± 1.9e-05 s⁻¹	0.00117 ± 0.00022 s⁻¹	0.0022 ± 0.00026 s⁻¹	–
AUAAAAGCGCCAGAACUACAGAAAUGUAGUUGACGAGGAGGAGGUUUAUCGAAUUCUCGGCGGAUGCCCCCAAA [U56C U69C]	3.67e-05 ± 7.4e-06 s⁻¹	< 1e-05 s⁻¹	–	–	–	3.13e-05 ± 1.3e-05 s⁻¹	–
AUAAAAGCGCCAGAACUACAGAAAUGUAGUUGACGAGGAGGAGGUUUAUCGAAUUUAUGGCGGAUGCCUCCAAA [U57A C58U]	6.53e-05 ± 2.8e-06 s⁻¹	–	–	–	–	2.39e-05 ± 8.3e-06 s⁻¹	–
AUAAAAGCGCCAGAACUACAGAAAUGUAGUUGACGAGGAGGAGGUUUAUCGAAUUCUCGACGGAUGCCUCCAAA [U56C G60A]	1.14e-05 ± 1.1e-07 s⁻¹	–	–	–	–	–	1070 ± 61 µM
AUAAAAGCGCCAGAACUACAGAAAUGUAGUUGACGAGGAGGAGGUUUAUCGAAUUAUCGGCGGAUGCCACCAAA [U56A U69A]	9.71e-05 ± 1.6e-05 s⁻¹	4e-05 ± 1.1e-05 s⁻¹	8.46e-05 ± 1.2e-05 s⁻¹	5e-05 ± 1.3e-05 s⁻¹	0.000155 ± 2.3e-05 s⁻¹	8.66e-05 ± 1.1e-05 s⁻¹	–
AUAAAAGCGCCAGAACUACAGAAAUGUAGUUGACGAGGAGGAGGUUUAUCGAAUUGGCGGCGGAUGCCUCCAAA [U56G U57G]	< 1e-05 s⁻¹	–	–	–	–	< 1e-05 s⁻¹	–
